These results are taken from paper PMC2853374 (2010).

In experiment [1] the target is OmpR (Escherichia coli) (UniProt P0AA16). The experiment in a line: FRET. As to conditions: cited from earlier work.
The target in experiment [2] is OmpR~P (Escherichia coli) (UniProt P0AA16). The experiment in a line: FRET. Particulars: cited from earlier work.
The target of experiment [3] is T1, OmpR (Escherichia coli, UniProt P0AA16).
T1 chain: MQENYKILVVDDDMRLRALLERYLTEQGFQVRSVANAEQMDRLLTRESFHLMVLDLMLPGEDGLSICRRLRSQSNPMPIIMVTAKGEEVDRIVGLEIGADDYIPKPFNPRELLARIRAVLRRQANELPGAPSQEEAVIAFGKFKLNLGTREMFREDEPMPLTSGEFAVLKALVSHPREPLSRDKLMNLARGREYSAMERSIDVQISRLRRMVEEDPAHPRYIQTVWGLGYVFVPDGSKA
The experiment in a line: fluorescence anisotropy. (In general: Fluorescence polarisation rises when a labelled molecule tumbles more slowly, as on binding a larger partner.)

For EnvZ-GFP (from UniProt P0AEJ4), the Kd was 500 nM in experiment [1] and 1600 nM in experiment [2].

B1: EnvZc cytoplasmic domain (protein)
chain: FNHMAAGVKQLADDRTLLMAGVSHDLRTPLTRIRLATEMMSEQDGYLAESINKDIEECNAIIEQFIDYLRTGQ
As for B1, binding in experiment [3] was characterised by a dissociation constant (Kd) of 425 nM.

B2: EnvZc cytoplasmic domain (protein)
chain: FNHMAAGVKQLADDRTLLMAGVSHDLRTPLTRIRLATEMMSEQDGYLAESINKDIEECNAIIEQFIDYLRTGQ
modifications: ompC DNA (C1-C2-C3)
On to B2, for which, in experiment [3], the Kd was determined as 385 nM.

What is called Kd is the concentration at which binding is half-saturated.
